Source: patent publication US7183387 (Genentech, dated 2007)

T1: human FcγRIIA-Arg131 α subunit extracellular domain-His6-GST fusion (human, UniProt P12318 34-217)
T1 construct: extracellular domain; also called FcγRIIA-R131; not shown: glutathione S transferase (GST)
T1 sequence: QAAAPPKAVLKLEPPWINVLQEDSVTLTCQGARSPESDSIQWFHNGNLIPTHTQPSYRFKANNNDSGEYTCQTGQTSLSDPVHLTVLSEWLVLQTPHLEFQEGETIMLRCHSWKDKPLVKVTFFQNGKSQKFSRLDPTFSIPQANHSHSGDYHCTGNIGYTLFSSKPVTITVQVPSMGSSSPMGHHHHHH

T2: human FcγRIIB α subunit extracellular domain-His6-GST fusion (human, UniProt P31994 43-217)
T2 construct: extracellular domain; also called CD32; not shown: glutathione S transferase (GST)
T2 sequence: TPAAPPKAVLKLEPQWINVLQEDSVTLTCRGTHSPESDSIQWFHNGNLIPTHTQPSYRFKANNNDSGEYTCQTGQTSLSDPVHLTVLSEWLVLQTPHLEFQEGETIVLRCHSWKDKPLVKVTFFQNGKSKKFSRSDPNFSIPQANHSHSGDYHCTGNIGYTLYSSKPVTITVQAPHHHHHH

T3: human FcγRIIA-H131 α subunit extracellular domain-His6-GST fusion protein (human, UniProt P12318 34-217)
T3 construct: also called FcγRIIA-His131; not shown: glutathione S-transferase (GST)
T3 sequence: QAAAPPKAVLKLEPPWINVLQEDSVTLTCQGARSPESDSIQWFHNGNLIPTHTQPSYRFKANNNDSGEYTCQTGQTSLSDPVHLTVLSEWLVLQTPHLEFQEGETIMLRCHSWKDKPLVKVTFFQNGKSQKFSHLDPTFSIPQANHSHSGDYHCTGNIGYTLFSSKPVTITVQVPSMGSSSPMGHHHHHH

T4: human FcγRIIA-R131 α subunit extracellular domain-His6-GST fusion protein (human, UniProt P12318 34-217)
T4 construct: ECD-6His-GST fusion made in 293 cells, coated on the plate; also called FcγRIIA-Arg131; not shown: glutathione S-transferase (GST)
T4 sequence: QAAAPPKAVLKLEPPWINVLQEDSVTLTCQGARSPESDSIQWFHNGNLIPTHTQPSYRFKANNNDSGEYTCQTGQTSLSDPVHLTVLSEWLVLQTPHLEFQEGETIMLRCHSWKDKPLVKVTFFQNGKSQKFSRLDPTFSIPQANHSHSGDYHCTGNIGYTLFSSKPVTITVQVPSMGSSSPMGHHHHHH


Tests used:
[1] = target: T1, human FcγRIIA-Arg131 α subunit …; test: hexamer ELISA
[2] = target: T2, human FcγRIIB α subunit extracellular …; test: hexamer ELISA
[3] = target: T5, human FcγRIIIA-Phe158 α subunit extracellular domain-His6-GST fusion (human, UniProt P08637 17-208); test: hexamer ELISA
T5 construct: extracellular domain; also called FcγRIIIA-F158; CD16; not shown: glutathione S transferase (GST)

[4] = target: T3, human FcγRIIA-H131 α subunit …; test: ELISA, IgG:IgE hexamer on coated FcγRIIA-H131-GST
[5] = target: T6, human FcγRIIIA-Val158 α subunit extracellular domain-His6-GST fusion protein (human, UniProt P08637 17-208); test: ELISA format, hexameric complex on FcγRIIIA-Val158
T6 construct: ELISA-format target; also called FcγRIIIA-V158; not shown: glutathione S-transferase (GST)

[6] = target: T3, human FcγRIIA-H131 α subunit …; test: ELISA; binding ratio on FcγRIIA-H131 divided by that on FcγRIIA-R131
[7] = target: T7, human FcγRIIIA-Phe158 with human γ-chain on stably transfected CHO cells (human, UniProt P08637 17-254; P30273 19-86); test: flow cytometry, monomeric IgG on CHO cells with FcγRIIIA-Phe158 α- and γ-chains
T7 construct: whole, on cells; CHO cells stably transfected with the α- and γ-chains of the receptor; also called FcγRIIIA-Phe158 (cell-based assay)
Experimental: CHO cell transfection was carried out using Superfect (Qiagen) according to the manufacturer's instructions. […] Receptor expression levels were determined by staining with anti-FcγRIII monoclonal antibody 3G8 (Medarex). Binding of IgG1 variants was performed by adding monomeric IgG in staining buffer to 5×10^5 cells and incubating in 96 well round-bottom tissue culture plates (Costar, Cambridge, Mass.) at 4° C. for 30 min. Cells were washed three times with staining buffer and IgG binding detected by addition of 1:200 PE-F(ab')_2 fragment of goat anti-human IgG and incubation for 30 min at 4° C. After washing, immunofluorescence staining was analyzed on a FACScan flow cytometer using Cellquest software (Becton Dickinson). Dead cells were excluded from analysis by addition of 1 μg/ml propidium iodide.
For FcγRIIIA, the selected variants were assayed in the ELISA-format as well as on stable-transfected CHO cell lines expressing the γ-chains (FcγRIIIA-Phe158 or FcγRIIIA-Val158) with the associated human α-chain.

[8] = target: T8, human FcγRIIIA-Val158 with human γ-chain on stably transfected CHO cells (human, UniProt P08637 17-254; P30273 19-86); test: flow cytometry, monomeric IgG on CHO cells with FcγRIIIA-Val158 α- and γ-chains
T8 construct: whole, on cells; CHO cells stably transfected with the α- and γ-chains of the receptor; also called FcγRIIIA-Val158 (cell-based assay); FcγRIIIA-V158

[9] = target: T9, human FcγRIIIA-Phe158 α subunit extracellular domain-His6-GST fusion protein (human, UniProt P08637 17-208); test: ELISA, IgG:IgE hexamer on coated FcγRIIIA-Phe158-GST; value carried over from Table 6
T9 construct: ELISA-format target; also called FcγRIIIA-F158; not shown: glutathione S-transferase (GST)

[10] = target: T4, human FcγRIIA-R131 α subunit …; test: ELISA, IgG:IgE hexamer on coated FcγRIIA-R131-GST; value carried over from Table 6, 7 or 8
[11] = target: T4, human FcγRIIA-R131 α subunit …; test: ELISA, IgG:IgE hexamer on coated FcγRIIA-R131-GST; separate assays run together with the H131 assays
[12] = target: T9, human FcγRIIIA-Phe158 α subunit …; test: ELISA format, hexameric complex on FcγRIIIA-Phe158; separate assays run together with the Val158 assays
[13] = target: T1, human FcγRIIA-Arg131 α subunit …; test: hexamer ELISA; remark: listed apart in the source
[14] = target: T2, human FcγRIIB α subunit extracellular …; test: hexamer ELISA; remark: listed apart in the source
[15] = target: T5, human FcγRIIIA-Phe158 α subunit …; test: hexamer ELISA; remark: listed apart in the source
[16] = target: T10, human neonatal Fc receptor (FcRn), biotinylated (human, UniProt P55899 24-297; P61769 21-119, biotinylated (biotin-X-NHS)); test: FcRn ELISA, pH 6.0;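 note: Streptavidin-captured FcRn plates, IgG variants titrated 2 h at pH 6.0, peroxidase anti-human IgG read at 450 nm, variant over standard concentration at the standard curve mid-point absorbance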
T10 construct: captured on streptavidin plates

[17] = target: T11, human FcγRIA α subunit extracellular domain-His6-GST fusion (human, UniProt P12314 16-292); test: FcγRI ELISA and THP-1 cells, averaged
T11 construct: extracellular domain; also called GST-FcγRIA; CD64; not shown: glutathione S transferase (GST)

[18] = target: T11, human FcγRIA α subunit extracellular …; test: FcγRI ELISA, E27 background
Experimental: Prior to assay, plates are washed 3× with 250 μl of wash buffer (PBS pH 7.4 containing 0.5% TWEEN 20™) and blocked with 250 μl of assay buffer (50 mM Tris buffered saline, 0.05% TWEEN 20™, 0.5% RIA grade bovine albumin (Sigma A7888), and 2 mM EDTA pH 7.4). Samples diluted to 10 μg/ml in 1 ml of assay buffer are added to FcγRI α subunit coated plates and incubated for 120 minutes at 25° C. on an orbital shaker. […] Plates are washed 5× with wash buffer to remove unbound HRP goat anti-human IgG and bound anti-IgG is detected by adding 100 μl of substrate solution (0.4 mg/ml o-phenylenedaimine dihydrochloride, Sigma P6912, 6 mM H_2O_2 in PBS) and incubating for 8 min at 25° C. Enzymatic reaction is stopped by the addition of 100 μl 4.5N H_2SO_4 and colorimetric product is measured at 490 nm on a 96 well plate densitometer (Molecular Devices). Binding of variant is expressed as a percent of the wild type molecule.

[19] = target: T1, human FcγRIIA-Arg131 α subunit …; test: immune complex ELISA, E27 background
[20] = target: T5, human FcγRIIIA-Phe158 α subunit …; test: immune complex ELISA, E27 background

T11 sequence (P12314 other isoform, or with tags, fused parts or gaps): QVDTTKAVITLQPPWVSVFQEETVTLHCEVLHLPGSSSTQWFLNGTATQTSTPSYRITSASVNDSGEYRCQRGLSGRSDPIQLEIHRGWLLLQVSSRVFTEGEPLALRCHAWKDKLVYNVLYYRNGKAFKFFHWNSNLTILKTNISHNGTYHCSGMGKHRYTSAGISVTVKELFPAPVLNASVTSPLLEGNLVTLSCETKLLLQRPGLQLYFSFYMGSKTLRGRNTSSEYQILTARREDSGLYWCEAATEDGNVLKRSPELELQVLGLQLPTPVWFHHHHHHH
T9 sequence (P08637 other isoform, or with tags, fused parts or gaps, form in doubt): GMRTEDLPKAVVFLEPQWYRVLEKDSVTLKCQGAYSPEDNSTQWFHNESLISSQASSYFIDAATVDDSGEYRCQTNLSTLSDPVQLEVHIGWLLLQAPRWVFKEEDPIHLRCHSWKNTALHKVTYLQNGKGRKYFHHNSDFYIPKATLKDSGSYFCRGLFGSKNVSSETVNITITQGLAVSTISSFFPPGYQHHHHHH
T7 sequence (P08637 17-254, chain 1 of 2): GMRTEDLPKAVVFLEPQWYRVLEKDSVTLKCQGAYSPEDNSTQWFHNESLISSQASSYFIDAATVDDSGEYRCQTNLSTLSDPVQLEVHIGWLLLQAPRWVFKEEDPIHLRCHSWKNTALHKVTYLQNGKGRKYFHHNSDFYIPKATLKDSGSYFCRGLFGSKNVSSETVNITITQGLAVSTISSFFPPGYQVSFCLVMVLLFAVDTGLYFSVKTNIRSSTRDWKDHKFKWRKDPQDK
T7 sequence (P30273 19-86, chain 2 of 2): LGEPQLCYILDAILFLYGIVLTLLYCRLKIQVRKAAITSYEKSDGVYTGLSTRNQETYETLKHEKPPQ
T6 sequence (P08637 other isoform, or with tags, fused parts or gaps, form in doubt): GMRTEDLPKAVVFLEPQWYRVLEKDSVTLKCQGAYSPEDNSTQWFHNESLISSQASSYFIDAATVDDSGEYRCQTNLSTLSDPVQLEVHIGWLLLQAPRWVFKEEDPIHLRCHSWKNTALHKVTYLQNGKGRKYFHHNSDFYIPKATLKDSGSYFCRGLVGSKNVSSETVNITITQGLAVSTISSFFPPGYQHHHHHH
T8 sequence (P08637 17-254 F176V, chain 1 of 2): as the sequence (P08637 17-254, chain 1 of 2) above, with F160V counted along it
T8 sequence (P30273 19-86, chain 2 of 2): as the sequence (P30273 19-86, chain 2 of 2) above

| ratio of binding of the variant to that of native IgG1 [5] | ratio of binding of the variant to that of native IgG1 [7] | ratio of binding of the variant to that of native IgG1 [8] | ratio of binding of the variant to that of native IgG1 [9] | ratio of binding of the variant to that of native IgG1 [12] | reduction in binding against native IgG1 [1] [%] | reduction in binding against native IgG1 [2] [%] | ratio to native IgG1 [13] [ratio] | ratio to native IgG1 [15] [ratio] | ratio to native IgG1 [16] [ratio] | ratio to native IgG1 [17] [ratio] | Binder | further results |
| --- | --- | --- | --- | --- | --- | --- | --- | --- | --- | --- | --- | --- |
| – | – | – | – | – | – | – | – | – | – | – | anti-IgE E27 IgG1 Asp265Asn (antibody) heavy: not shown light: DIQLTQSPSSLSASVGDRVTITCRASKPVDGEGDSYLNWYQQKPGKAPKLLIYAASYLESGVPSRFSGSGSGTDFTLTISSLQPEDFATYYCQQSHEDPYTFGQGTKVEIKRTVAAPSVFIFPPSDEQLKSGTASVVCLLNNFYPREAKVQWKVDNALQSGNSQESVTEQDSKDSTYSLSSTLTLSKADYEKHKVYACEVTHQGLSSPVTKSFNRGEC | binding result [1]: no binding; binding result [2]: no binding; binding result [3]: no binding |
| 1.07 ratio (variant/native IgG1) | 1.85 ratio (variant/native IgG1) | 1.18 ratio (variant/native IgG1) | 1.34 ratio (variant/native IgG1) | 1.49 ratio (variant/native IgG1) | – | – | – | – | – | – | anti-IgE E27 IgG1 variant Ser298Ala (antibody, also called S317A) heavy: not shown light: DIQLTQSPSSLSASVGDRVTITCRASKPVDGEGDSYLNWYQQKPGKAPKLLIYAASYLESGVPSRFSGSGSGTDFTLTISSLQPEDFATYYCQQSHEDPYTFGQGTKVEIKRTVAAPSVFIFPPSDEQLKSGTASVVCLLNNFYPREAKVQWKVDNALQSGNSQESVTEQDSKDSTYSLSSTLTLSKADYEKHKVYACEVTHQGLSSPVTKSFNRGEC | ratio of binding of the variant to that of native IgG1 [4]: 0.24 ratio (variant/native IgG1); H131/R131 [6]: 0.93 ratio (H131 value/R131 value); ratio of binding of the variant to that of native IgG1 [10]: 0.4 ratio (variant/native IgG1); ratio of binding of the variant to that of native IgG1 [11]: 0.26 ratio (variant/native IgG1) |
| – | – | – | – | – | 40 | 40 | 0.64 | 0.82 | 1.02 | 1 | anti-IgE E27 IgG1 Lys414Ala (antibody) heavy: not shown light: DIQLTQSPSSLSASVGDRVTITCRASKPVDGEGDSYLNWYQQKPGKAPKLLIYAASYLESGVPSRFSGSGSGTDFTLTISSLQPEDFATYYCQQSHEDPYTFGQGTKVEIKRTVAAPSVFIFPPSDEQLKSGTASVVCLLNNFYPREAKVQWKVDNALQSGNSQESVTEQDSKDSTYSLSSTLTLSKADYEKHKVYACEVTHQGLSSPVTKSFNRGEC | ratio to native IgG1 [14]: 0.58 ratio |
| 0.97 ratio (variant/native IgG1) | 0.94 ratio (variant/native IgG1) | 0.88 ratio (variant/native IgG1) | 1.08 ratio (variant/native IgG1) | 1 ratio (variant/native IgG1) | – | – | – | – | – | – | anti-IgE E27 IgG1 variant Pro331Ala (antibody, also called P331(350)A; IG2 65) heavy: not shown light: DIQLTQSPSSLSASVGDRVTITCRASKPVDGEGDSYLNWYQQKPGKAPKLLIYAASYLESGVPSRFSGSGSGTDFTLTISSLQPEDFATYYCQQSHEDPYTFGQGTKVEIKRTVAAPSVFIFPPSDEQLKSGTASVVCLLNNFYPREAKVQWKVDNALQSGNSQESVTEQDSKDSTYSLSSTLTLSKADYEKHKVYACEVTHQGLSSPVTKSFNRGEC | – |
| – | – | – | – | – | – | – | 0.08 | 0.21 | 0.8 | 0.48 | anti-IgE E27 IgG1 Pro329Ala (antibody, also called P329A) heavy: not shown light: DIQLTQSPSSLSASVGDRVTITCRASKPVDGEGDSYLNWYQQKPGKAPKLLIYAASYLESGVPSRFSGSGSGTDFTLTISSLQPEDFATYYCQQSHEDPYTFGQGTKVEIKRTVAAPSVFIFPPSDEQLKSGTASVVCLLNNFYPREAKVQWKVDNALQSGNSQESVTEQDSKDSTYSLSSTLTLSKADYEKHKVYACEVTHQGLSSPVTKSFNRGEC | percentage of the wild type [18]: 104%; percentage of the wild type [19]: 111%; percentage of the wild type [20]: 85% |
| – | – | – | – | – | 30 | 40 | – | – | – | – | anti-IgE E27 IgG1 Gln419 changed to Ala (antibody, named only by its position) heavy: not shown light: DIQLTQSPSSLSASVGDRVTITCRASKPVDGEGDSYLNWYQQKPGKAPKLLIYAASYLESGVPSRFSGSGSGTDFTLTISSLQPEDFATYYCQQSHEDPYTFGQGTKVEIKRTVAAPSVFIFPPSDEQLKSGTASVVCLLNNFYPREAKVQWKVDNALQSGNSQESVTEQDSKDSTYSLSSTLTLSKADYEKHKVYACEVTHQGLSSPVTKSFNRGEC | – |
